Data from patent US5716804, “Mammalian interleukin-10 (IL-10) super-activating receptors; and variants” (Schering Corporation, dated 1998).
“And” between values parts separate entries of the source, which are not always exact repeats. Equal values may be shown once. Each block holds one molecule with its values, some of them ahead of it.

Legend:
the mutant mIL-10R = assay: binding of iodinated hIL-10 to Ba/F3 transfectants, Scatchard analysis
mIL-10R Δ282-389 (mouse) = details: scale: log greater proliferative response than wild-type mIL-10R
mIL-10R Δ282-414 (mouse) = details: scale: log greater proliferative response than wild-type mIL-10R
mIL-10R Δ282-458 (mouse) = details: scale: log greater proliferative response than wild-type mIL-10R
[1] = target: T1, ^125 I-hIL-10 (iodinated recombinant CHO-derived human IL-10) (human, UniProt P22301, iodinated (125I); labelled residue not stated); assay: binding of iodinated hIL-10 to Ba/F3 transfectants
[2] = target: T1, ^125 I-hIL-10 (iodinated recombinant …); assay: Scatchard analysis of 125I-hIL-10 saturation binding to Ba/F3 transfectants
Description: Approximately 5×10^6 cells for each cell line tested were pelleted by centrifugation at 200×g for 10 min, washed in PBS, and resuspended in 200 μl binding buffer (PBS, 10% fetal calf serum, 0.1% NaN_3) containing iodinated hIL-10 at a concentration of 100–500 pM. After incubation at 4° C. for two hours in a rotary mixer, the cells were centrifuged at 200×g for 10 min, resuspended in 100 μl binding buffer without labeled hIL-10, layered over 200 μl of a 1:1 mixture of dibutyl- and dioctyl-phthalate oils in elongated microcentrifuge tubes, centrifuged at 400×g for 5 min at 4° C., and quick frozen in liquid nitrogen. The cell pellets were then cut and counted in a Clinigamma 1272 counter (Pharmacia LKB). Non-specific binding was determined by performing the binding in the presence of 500 to 1000-fold molar excess unlabeled hIL-10. For saturation binding experiments, two-fold serial dilutions of approximately 600 pM solution of iodinated hIL-10 were used, with a parallel series done to determine non-specific binding. Scatchard analysis was performed on the data points obtained using the EBDA Program (Elsevier-Biosoft, Cambridge, U.K.). Antibody inhibition was done under the above binding conditions but with the addition of a 100-fold molar excess of each of the indicated monoclonal antibodies. Cytokine specificity was determined under similar conditions but with the addition of 500-fold molar excess of the cytokines indicated. Similar measurements can be made using the BIACORE apparatus (Pharmacia LKB) following manufacturer's recommendations.

Kd (the mutant mIL-10R): 0.4 to 0.6 nM
Molecule: ^125 I-hIL-10 (iodinated recombinant CHO-derived human IL-10) (from UniProt P22301) (ligand)

proliferative response to IL-10 of Ba/F3 transfectants (mIL-10R Δ282-389 (mouse)): 1.5 and 2
proliferative response to IL-10 of Ba/F3 transfectants (mIL-10R Δ282-414 (mouse)): 1.5 and 2
proliferative response to IL-10 of Ba/F3 transfectants (mIL-10R Δ282-458 (mouse)): 1.5 and 2
Molecule: IL-10 (ligand)

binding result [1]: binds
B1: mIL-10R Δ282-389 (receptor)
chain: LEFIAYGTELPSPSYVWFEARFFQHILHWKPIPNQSESTYYEVALKQYGNSTWNDIHICRKAQALSCDLTTFTLDLYHRSYGYRARVRAVDNSQYSNWTTTETRFTVDEVILTVDSVTLKAMDGIIYGTIHPPRPTITPAGDEYEQVFKDLRVYKISIRKFSELKNATKRVKQETFTLTVPIGVRKFCVKVLPRLESRINKAEWSEEQCLLITTEQYFTVTNLSILVISMLLFCGILVCLVLQWYIRHPGKLPTVLVFKKPHDFFPANPLCPETPDAIHIVSPGQPKYTQDASALGHVCLLEPKAPEEKDQVMVTFQGYQKQTRWKAEAAGPAECLDEEIPLTDAFDPELGVHLQDDLAWPPPALAAGYLKQESQGMASAPPGTPSRQWNQLTEEWSLLGVVSCEDLSIESWRFAHKLDPLDCGAAPGGLLDSLGSNLVTLPLISSLQVEE

Kd [2]: 0.28 nM
B2: wild-type mouse IL-10 receptor (mIL-10R) (receptor)
chain: LEFIAYGTELPSPSYVWFEARFFQHILHWKPIPNQSESTYYEVALKQYGNSTWNDIHICRKAQALSCDLTTFTLDLYHRSYGYRARVRAVDNSQYSNWTTTETRFTVDEVILTVDSVTLKAMDGIIYGTIHPPRPTITPAGDEYEQVFKDLRVYKISIRKFSELKNATKRVKQETFTLTVPIGVRKFCVKVLPRLESRINKAEWSEEQCLLITTEQYFTVTNLSILVISMLLFCGILVCLVLQWYIRHPGKLPTVLVFKKPHDFFPANPLCPETPDAIHIVDLEVFPKVSLELRDSVLHGSTDSGFGSGKPSLQTEESQFLLPGSHPQIQGTLGKEESPGLQATCGDNTDSGICLQEPGLHSSMGPAWKQQLGYTHQDQDDSDVNLVQNSPGQPKYTQDASALGHVCLLEPKAPEEKDQVMVTFQGYQKQTRWKAEAAGPAECLDEEIPLTDAFDPELGVHLQDDLAWPPPALAAGYLKQESQGMASAPPGTPSRQWNQLTEEWSLLGVVSCEDLSIESWRFAHKLDPLDCGAAPGGLLDSLGSNLVTLPLISSLQVEE

Kd [2]: 0.54 nM
B3: mIL-10R Δ483-559 (receptor)
chain: LEFIAYGTELPSPSYVWFEARFFQHILHWKPIPNQSESTYYEVALKQYGNSTWNDIHICRKAQALSCDLTTFTLDLYHRSYGYRARVRAVDNSQYSNWTTTETRFTVDEVILTVDSVTLKAMDGIIYGTIHPPRPTITPAGDEYEQVFKDLRVYKISIRKFSELKNATKRVKQETFTLTVPIGVRKFCVKVLPRLESRINKAEWSEEQCLLITTEQYFTVTNLSILVISMLLFCGILVCLVLQWYIRHPGKLPTVLVFKKPHDFFPANPLCPETPDAIHIVDLEVFPKVSLELRDSVLHGSTDSGFGSGKPSLQTEESQFLLPGSHPQIQGTLGKEESPGLQATCGDNTDSGICLQEPGLHSSMGPAWKQQLGYTHQDQDDSDVNLVQNSPGQPKYTQDASALGHVCLLEPKAPEEKDQVMVTFQGYQKQTRWKAEAAGPAECLDEEIPLTDAFDPELGVHLQDDLAWPPPALAAGYLKQES

binding result [1]: binds
B4: mIL-10R Δ282-458 (receptor)
chain: LEFIAYGTELPSPSYVWFEARFFQHILHWKPIPNQSESTYYEVALKQYGNSTWNDIHICRKAQALSCDLTTFTLDLYHRSYGYRARVRAVDNSQYSNWTTTETRFTVDEVILTVDSVTLKAMDGIIYGTIHPPRPTITPAGDEYEQVFKDLRVYKISIRKFSELKNATKRVKQETFTLTVPIGVRKFCVKVLPRLESRINKAEWSEEQCLLITTEQYFTVTNLSILVISMLLFCGILVCLVLQWYIRHPGKLPTVLVFKKPHDFFPANPLCPETPDAIHIVGVHLQDDLAWPPPALAAGYLKQESQGMASAPPGTPSRQWNQLTEEWSLLGVVSCEDLSIESWRFAHKLDPLDCGAAPGGLLDSLGSNLVTLPLISSLQVEE

Kd [2]: 0.67 nM
B5: mIL-10R Δ282-414 (receptor)
chain: LEFIAYGTELPSPSYVWFEARFFQHILHWKPIPNQSESTYYEVALKQYGNSTWNDIHICRKAQALSCDLTTFTLDLYHRSYGYRARVRAVDNSQYSNWTTTETRFTVDEVILTVDSVTLKAMDGIIYGTIHPPRPTITPAGDEYEQVFKDLRVYKISIRKFSELKNATKRVKQETFTLTVPIGVRKFCVKVLPRLESRINKAEWSEEQCLLITTEQYFTVTNLSILVISMLLFCGILVCLVLQWYIRHPGKLPTVLVFKKPHDFFPANPLCPETPDAIHIVEEKDQVMVTFQGYQKQTRWKAEAAGPAECLDEEIPLTDAFDPELGVHLQDDLAWPPPALAAGYLKQESQGMASAPPGTPSRQWNQLTEEWSLLGVVSCEDLSIESWRFAHKLDPLDCGAAPGGLLDSLGSNLVTLPLISSLQVEE
